pKd: −log10 of the molar value.

The experiment has as its target MUC1 (TA-Muc1) on the human tumor cell line ZR-75-1 (human) (UniProt P15941). Nature of the experiment: Scatchard analysis, 111In-labelled antibody on ZR-75-1 cells.

Regarding PankoMab expressed in CHO (antibody), the negative-log Kd (pKd) (in general, −log10 of the Kd, conventionally taken in molar units) is 8.11.
To PankoMab expressed in GT-5s (antibody) belongs 8.48.

Values taken from patent US20130209458A1.
